In US20220135638A1 (Takeda / Millennium, published 2022) one finds GIP EC50(pM) and GLP EC50 data, which are given here for 25 molecules.

In assay [1] the target is T1, full-length human GIPR (GenBank NM_000164) with an N-terminal FLAG tag on HEK-293T cells (human), P48546.
T1 chain: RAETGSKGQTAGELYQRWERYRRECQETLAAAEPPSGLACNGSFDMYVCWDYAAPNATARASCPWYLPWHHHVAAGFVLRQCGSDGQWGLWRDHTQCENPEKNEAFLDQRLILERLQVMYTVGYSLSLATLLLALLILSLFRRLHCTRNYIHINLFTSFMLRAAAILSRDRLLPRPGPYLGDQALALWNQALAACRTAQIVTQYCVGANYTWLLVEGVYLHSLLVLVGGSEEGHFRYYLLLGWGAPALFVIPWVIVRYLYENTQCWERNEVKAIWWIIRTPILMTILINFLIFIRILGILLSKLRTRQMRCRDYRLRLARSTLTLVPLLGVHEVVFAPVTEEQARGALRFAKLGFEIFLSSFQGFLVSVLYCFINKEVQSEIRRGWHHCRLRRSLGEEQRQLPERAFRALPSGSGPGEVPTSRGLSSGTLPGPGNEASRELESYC
The experiment in a line: cell-based or functional assay.

The target in assay [2] is T2, full-length human GLP-1R (GenBank NM_002062) with an N-terminal FLAG tag on HEK-293T cells (human), P43220.
T2 chain: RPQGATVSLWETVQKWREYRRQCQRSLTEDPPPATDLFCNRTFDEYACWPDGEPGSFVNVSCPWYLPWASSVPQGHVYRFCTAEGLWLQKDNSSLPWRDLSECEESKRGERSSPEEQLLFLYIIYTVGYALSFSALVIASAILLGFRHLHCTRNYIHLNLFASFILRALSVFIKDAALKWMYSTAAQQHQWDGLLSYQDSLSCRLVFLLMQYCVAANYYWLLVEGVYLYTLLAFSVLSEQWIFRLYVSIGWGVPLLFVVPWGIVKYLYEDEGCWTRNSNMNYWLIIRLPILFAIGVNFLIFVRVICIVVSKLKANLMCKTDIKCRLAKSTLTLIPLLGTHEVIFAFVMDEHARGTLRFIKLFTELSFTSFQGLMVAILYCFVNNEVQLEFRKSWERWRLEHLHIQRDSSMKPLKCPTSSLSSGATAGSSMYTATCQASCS
Nature of the assay: cell-based or functional assay.

Numbered stars: 1 amine (or outer) side, 2 acyl side, 3 side chain; on linkers, the order of the positions; unused ones are H or OH. Square brackets hold non-standard residues; d marks the D form. Primed or numbered codes have the meaning given here. Side chains are listed from the residue outwards. Ends that are not written are not given here. * marks the point of attachment. C20 diacid = O=C(O)CCCCCCCCCCCCCCCCCCC(=O)*; C16 diacid = O=C(O)CCCCCCCCCCCCCCC(=O)*; γGlu = O=C(O)[C@H](CCC(=O)[*:2])N[*:1]; Iva = CC[C@](C)(N)C(=O)O; PEG3′ = not defined here; Aib = CC(C)(N)C(=O)O Where only a bound is given, the exact number is not on record here.

B1: Compound No. 493 (peptide)
peptide: Y[Aib]EGTFISDYSIALDR[Aib]HQ[Aib]NFVNW[Iva]LAQRPSK([PEG3′-PEG3′-γGlu-C20 diacid])GAPPPS
modifications: ends and bridges not checked
Regarding B1, the GIP EC50(pM) in assay [1] is 1.22 pM. The molecule further yielded a GLP EC50 in assay [2] of more than 1 µM.

B2: Compound No. 486 (peptide)
peptide: Y[Aib]EGTFISDYSIALDR[Aib]HQ[Aib]NFVNW[Iva]LAQRK([PEG3′-PEG3′-γGlu-Ida])SSGAPPPS
modifications: ends and bridges not checked
Consider B2, for which, in assay [1], the GIP EC50(pM) was determined as 0.7 pM. Also, in assay [2], the GLP EC50 was more than 1 µM.

B3: Compound No. 468 (peptide)
peptide: Y[Aib]EGTFISDYSIALDR[Aib]HQ[Aib]NFVNW[Iva]LAQRKSSGAPPPS
modifications: not fully specified (residue 31); ends and bridges not checked
As for B3, the GIP EC50(pM) in assay [1] worked out at 0.44 pM. Also, the GLP EC50 in assay [2] was more than 1 µM.

B4: Compound No. 498 (peptide)
peptide: Y[Aib]EGTFISDYSIALDR[Aib]HQ[Aib]NFVNW[Iva]LAQRPSSGK([PEG3′-PEG3′-γGlu-Ida])PPPS
modifications: ends and bridges not checked
In assay [1], B4 came in with a GIP EC50(pM) of 0.6 pM. The same molecule came in with a GLP EC50 in assay [2] of more than 1 µM.

B5: Compound No. 489 (peptide)
peptide: Y[Aib]EGTFISDYSIALDR[Aib]HQ[Aib]NFVNW[Iva]LAQRPK([PEG3′-PEG3′-γGlu-Ida])SGAPPPS
modifications: ends and bridges not checked
As for B5, in assay [1], the GIP EC50(pM) came out at 0.96 pM. In assay [2], this molecule had a GLP EC50 of more than 1 µM.

B6: Compound No. 477 (peptide)
peptide: Y[Aib]EGTFISDYSIALDR[Aib]HQ[Aib]NFVNW[Iva]LAQRPSSGAPPK([PEG3′-PEG3′-γGlu-Ida])S
modifications: ends and bridges not checked
Take B6: the GIP EC50(pM) in assay [1] is 0.64 pM. Also, the GLP EC50 in assay [2] was more than 1 µM.

B7: Compound No. 497 (peptide)
peptide: Y[Aib]EGTFISDYSIALDR[Aib]HQ[Aib]NFVNW[Iva]LAQRPSSGK([PEG3′-PEG3′-γGlu-C16 diacid])PPPS
modifications: ends and bridges not checked
Consider B7, for which, in assay [1], the GIP EC50(pM) stood at 0.4 pM. In assay [2], this molecule yielded a GLP EC50 of more than 1 µM.

B8: Compound No. 464 (peptide)
peptide: Y[Aib]EGTFISDYSIALDR[Aib]HQ[Aib]NFVNW[Iva]LAQRPSSGAPPPK([Gly-Gly-Gly-Gly-Gly-γGlu-C20 diacid])
modifications: ends and bridges not checked
For the molecule B8, the GIP EC50(pM) in assay [1] stood at 1.29 pM. Moreover, the GLP EC50 in assay [2] is 0.977 µM.

B9: Compound No. 494 (peptide)
peptide: Y[Aib]EGTFISDYSIALDR[Aib]HQ[Aib]NFVNW[Iva]LAQRPSSK([PEG3′-PEG3′-γGlu-C16 diacid])APPPS
modifications: ends and bridges not checked
In assay [1], B9 yielded a GIP EC50(pM) of 0.5 pM. This molecule registered a GLP EC50 in assay [2] of more than 1 µM.

B10: Compound No. 480 (peptide)
peptide: Y[Aib]EGTFISDYSIALDR[Aib]HQ[Aib]NFVNW[Iva]LAQRPSSGAPPPK([PEG3′-PEG3′-γGlu-Ida])
modifications: ends and bridges not checked
B10 showed a GIP EC50(pM) in assay [1] of 0.5 pM. In assay [2], the GLP EC50 was more than 1 µM.

B11: Compound No. 495 (peptide)
peptide: Y[Aib]EGTFISDYSIALDR[Aib]HQ[Aib]NFVNW[Iva]LAQRPSSK([PEG3′-PEG3′-γGlu-Ida])APPPS
modifications: ends and bridges not checked
As for B11, the GIP EC50(pM) in assay [1] was 0.86 pM. In addition, in assay [2], the GLP EC50 is more than 1 µM.

B12: Compound No. 481 (peptide)
peptide: Y[Aib]EGTFISDYSIALDR[Aib]HQ[Aib]NFVNW[Iva]LAQRPSSGAPPPK([PEG3′-PEG3′-γGlu-C20 diacid])
modifications: ends and bridges not checked
B12: the GIP EC50(pM) in assay [1] came out at 0.61 pM. For the same molecule, the GLP EC50 in assay [2] was more than 1 µM.

B13: Compound No. 470 (peptide)
peptide: Y[Aib]EGTFISDYSIALDR[Aib]HQ[Aib]NFVNW[Iva]LAQRKSSGAPPPS
modifications: not fully specified (residue 31); ends and bridges not checked
In assay [1], B13 had a GIP EC50(pM) of 1.12 pM. In assay [2], this molecule gave a GLP EC50 of more than 1 µM.

B14: Compound No. 490 (peptide)
peptide: Y[Aib]EGTFISDYSIALDR[Aib]HQ[Aib]NFVNW[Iva]LAQRPK([PEG3′-PEG3′-γGlu-C20 diacid])SGAPPPS
modifications: ends and bridges not checked
For the molecule B14, in assay [1], the GIP EC50(pM) came to 1.88 pM. The molecule also came in with a GLP EC50 in assay [2] of more than 1 µM.

B15: Compound No. 492 (peptide)
peptide: Y[Aib]EGTFISDYSIALDR[Aib]HQ[Aib]NFVNW[Iva]LAQRPSK([PEG3′-PEG3′-γGlu-Ida])GAPPPS
modifications: ends and bridges not checked
In the case of B15, the GIP EC50(pM) in assay [1] was 1.22 pM. Moreover, the GLP EC50 in assay [2] is more than 1 µM.

B16: Compound No. 488 (peptide)
peptide: Y[Aib]EGTFISDYSIALDR[Aib]HQ[Aib]NFVNW[Iva]LAQRPK([PEG3′-PEG3′-γGlu-C16 diacid])SGAPPPS
modifications: ends and bridges not checked
B16 gave a GIP EC50(pM) in assay [1] of 0.75 pM. The GLP EC50 in assay [2] is more than 1 µM.

B17: Compound No. 485 (peptide)
peptide: Y[Aib]EGTFISDYSIALDR[Aib]HQ[Aib]NFVNW[Iva]LAQRK([PEG3′-PEG3′-γGlu-C16 diacid])SSGAPPPS
modifications: ends and bridges not checked
Take B17: the GIP EC50(pM) in assay [1] is 0.28 pM. This molecule also displayed a GLP EC50 in assay [2] of more than 1 µM.

B18: Compound No. 487 (peptide)
peptide: Y[Aib]EGTFISDYSIALDR[Aib]HQ[Aib]NFVNW[Iva]LAQRK([PEG3′-PEG3′-γGlu-C20 diacid])SSGAPPPS
modifications: ends and bridges not checked
In assay [1], B18 showed a GIP EC50(pM) of 1.38 pM. Moreover, the GLP EC50 in assay [2] was more than 1 µM.

B19: Compound No. 499 (peptide)
peptide: Y[Aib]EGTFISDYSIALDR[Aib]HQ[Aib]NFVNW[Iva]LAQRPSSGK([PEG3′-PEG3′-γGlu-C20 diacid])PPPS
modifications: ends and bridges not checked
Take B19: the GIP EC50(pM) in assay [1] came out at 1.17 pM. The molecule also had a GLP EC50 in assay [2] of more than 1 µM.

B20: Compound No. 496 (peptide)
peptide: Y[Aib]EGTFISDYSIALDR[Aib]HQ[Aib]NFVNW[Iva]LAQRPSSK([PEG3′-PEG3′-γGlu-C20 diacid])APPPS
modifications: ends and bridges not checked
The molecule B20 had a GIP EC50(pM) in assay [1] of 1.09 pM. In assay [2], the GLP EC50 is more than 1 µM.

B21: Compound No. 491 (peptide)
peptide: Y[Aib]EGTFISDYSIALDR[Aib]HQ[Aib]NFVNW[Iva]LAQRPSK([PEG3′-PEG3′-γGlu-C16 diacid])GAPPPS
modifications: ends and bridges not checked
In assay [1], B21 displayed a GIP EC50(pM) of 0.7 pM. For the same molecule, the GLP EC50 in assay [2] was more than 1 µM.

B22: Compound No. 479 (peptide)
peptide: Y[Aib]EGTFISDYSIALDR[Aib]HQ[Aib]NFVNW[Iva]LAQRPSSGAPPPK([PEG3′-PEG3′-γGlu-C16 diacid])
modifications: ends and bridges not checked
Turning to B22, the GIP EC50(pM) in assay [1] amounted to 0.42 pM. The molecule further registered a GLP EC50 in assay [2] of more than 1 µM.

B23: Compound No. 478 (peptide)
peptide: Y[Aib]EGTFISDYSIALDR[Aib]HQ[Aib]NFVNW[Iva]LAQRPSSGAPPK([PEG3′-PEG3′-γGlu-C20 diacid])S
modifications: ends and bridges not checked
Molecule B23 had a GIP EC50(pM) in assay [1] of 1.36 pM. In assay [2], the GLP EC50 is more than 1 µM.

B24: Compound No. 476 (peptide)
peptide: Y[Aib]EGTFISDYSIALDR[Aib]HQ[Aib]NFVNW[Iva]LAQRPSSGAPPK([PEG3′-PEG3′-γGlu-C16 diacid])S
modifications: ends and bridges not checked
B24 yielded a GIP EC50(pM) in assay [1] of 0.74 pM. In assay [2], this molecule showed a GLP EC50 of more than 1 µM.

B25: Compound No. 469 (peptide)
peptide: Y[Aib]EGTFISDYSIALDR[Aib]HQ[Aib]NFVNW[Iva]LAQRKSSGAPPPS
modifications: not fully specified (residue 31); ends and bridges not checked
As for B25, the GIP EC50(pM) in assay [1] stood at 0.62 pM. The GLP EC50 in assay [2] is more than 1 µM.
